Test results as given in publication PMC10574006, “Two Different Isocitrate Dehydrogenases from Pseudomonas aeruginosa: Enzymology and Coenzyme-Evolutionary Implications” (International Journal of Molecular Sciences, 2023).

Columns and labels:
PaIDH2 = biological target: T1, PaIDH2 (Pseudomonas aeruginosa, UniProt Q9I0L4); assay: effect on IDH activity, product formation; format: biochemical; details: read-out: Relative Activity (%) / PaIDH2
T1 construct: gene idh; full length, 741 aa, 6xHis-tag, pET-28b(+) NdeI/XhoI, E. coli Rosetta (DE3), 81 kDa subunit, oligomer depends on salt (176-320 kDa)
T1 sequence (Q9I0L4 1-741): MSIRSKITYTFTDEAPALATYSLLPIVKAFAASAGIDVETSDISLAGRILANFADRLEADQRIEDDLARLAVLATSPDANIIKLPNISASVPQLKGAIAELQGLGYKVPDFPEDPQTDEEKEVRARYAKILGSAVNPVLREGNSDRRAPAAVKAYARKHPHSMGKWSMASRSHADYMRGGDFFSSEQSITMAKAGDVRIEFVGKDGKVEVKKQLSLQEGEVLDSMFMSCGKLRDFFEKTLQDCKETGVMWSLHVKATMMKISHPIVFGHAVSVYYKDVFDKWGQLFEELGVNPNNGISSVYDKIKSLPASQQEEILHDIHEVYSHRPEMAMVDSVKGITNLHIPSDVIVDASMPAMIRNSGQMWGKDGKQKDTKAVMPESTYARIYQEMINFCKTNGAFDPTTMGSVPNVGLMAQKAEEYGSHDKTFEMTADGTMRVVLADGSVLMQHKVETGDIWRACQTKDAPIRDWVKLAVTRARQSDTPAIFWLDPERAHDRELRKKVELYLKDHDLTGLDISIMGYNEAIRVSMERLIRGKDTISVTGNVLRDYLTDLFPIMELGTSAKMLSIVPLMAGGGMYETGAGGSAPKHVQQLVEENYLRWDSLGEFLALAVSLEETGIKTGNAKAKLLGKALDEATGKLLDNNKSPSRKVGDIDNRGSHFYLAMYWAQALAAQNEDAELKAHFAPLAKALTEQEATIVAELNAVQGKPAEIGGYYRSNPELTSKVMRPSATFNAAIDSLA
Excerpt: effect on IDH activity, product formation on PaIDH2

PaIDH1 = biological target: T2, PaIDH1 (Pseudomonas aeruginosa, UniProt Q9I0L5); assay: effect on IDH activity, product formation; format: biochemical; details: read-out: Relative Activity (%) / PaIDH1
T2 construct: gene icd; full length, 418 aa, 6xHis-tag, pET-28b(+) NdeI/XhoI, E. coli Rosetta (DE3), 45 kDa subunit, homodimer
T2 sequence (Q9I0L5 1-418): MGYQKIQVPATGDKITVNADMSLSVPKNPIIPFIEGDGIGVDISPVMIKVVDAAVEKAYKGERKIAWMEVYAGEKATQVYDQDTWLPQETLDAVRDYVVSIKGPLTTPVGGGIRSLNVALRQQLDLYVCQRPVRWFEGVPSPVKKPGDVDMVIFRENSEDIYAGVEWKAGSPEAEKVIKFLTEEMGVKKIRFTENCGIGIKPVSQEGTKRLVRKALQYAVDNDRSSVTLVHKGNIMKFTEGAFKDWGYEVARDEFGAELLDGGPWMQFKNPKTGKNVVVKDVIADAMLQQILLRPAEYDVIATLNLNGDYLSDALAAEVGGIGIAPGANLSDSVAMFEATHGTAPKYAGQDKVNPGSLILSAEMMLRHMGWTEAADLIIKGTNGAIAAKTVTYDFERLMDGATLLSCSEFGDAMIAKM
Excerpt: effect on IDH activity, product formation on PaIDH1

purified protein [1] = substrate: NC(=O)c1ccc[n+]([C@@H]2O[C@H](COP(=O)(O)OP(=O)(O)OC[C@H]3O[C@@H](n4cnc5c(N)ncnc54)[C@H](OP(=O)(O)O)[C@@H]3O)[C@@H](O)[C@H]2O)c1; assay: purified protein; format: biochemical, Pseudomonas aeruginosa; details: 1 mM DL-isocitrate, 2 mM MnCl2, 50 mM Tris-HCl pH 7.5, 25 °C, varied: cofactor
purified protein [2] = substrate: O=C(O)CC(C(=O)O)C(O)C(=O)O; assay: purified protein; format: biochemical, Pseudomonas aeruginosa; details: 500 μM NADP+, 2 mM MnCl2, 50 mM Tris-HCl pH 7.5, 25 °C

`Nc1ncnc2c1ncn2[C@@H]1O[C@H](COP(=O)(O)OP(=O)(O)OP(=O)(O)O)[C@@H](O)[C@H]1O` [ATP] gave an activity at 2000 µM (PaIDH2) of 75.9 ± 5.92%.

`O=C(O)CCC(=O)C(=O)O` [α-KG] was tested, and the activity at 2000 µM (PaIDH2) was 82.8 ± 5.65% and the activity at 2000 µM (PaIDH1) was 79.5 ± 4.64%.

`O=C(O)CC(=O)C(=O)O` [OAA] showed an activity at 2000 µM (PaIDH1) of 77.5 ± 4.56%.

`Nc1ncnc2c1ncn2[C@@H]1O[C@H](COP(=O)(O)OP(=O)(O)O)[C@@H](O)[C@H]1O` [ADP] gave an activity at 2000 µM (PaIDH2) of 82.7 ± 3.37% and an activity at 2000 µM (PaIDH1) of 81.8 ± 3.55%.

B1: PaIDH1 (Pseudomonas aeruginosa PAO1) (protein)
chain: MGYQKIQVPATGDKITVNADMSLSVPKNPIIPFIEGDGIGVDISPVMIKVVDAAVEKAYKGERKIAWMEVYAGEKATQVYDQDTWLPQETLDAVRDYVVSIKGPLTTPVGGGIRSLNVALRQQLDLYVCQRPVRWFEGVPSPVKKPGDVDMVIFRENSEDIYAGVEWKAGSPEAEKVIKFLTEEMGVKKIRFTENCGIGIKPVSQEGTKRLVRKALQYAVDNDRSSVTLVHKGNIMKFTEGAFKDWGYEVARDEFGAELLDGGPWMQFKNPKTGKNVVVKDVIADAMLQQILLRPAEYDVIATLNLNGDYLSDALAAEVGGIGIAPGANLSDSVAMFEATHGTAPKYAGQDKVNPGSLILSAEMMLRHMGWTEAADLIIKGTNGAIAAKTVTYDFERLMDGATLLSCSEFGDAMIAKM
notes: full length, 418 aa, 6xHis-tag, pET-28b(+) NdeI/XhoI, E. coli Rosetta (DE3), 45 kDa subunit, homodimer
B1 was tested, and the Km (purified protein [1]) was 20.00 ± 6.29 µM, the kcat (purified protein [1]) was 105 ± 19.9 s⁻¹ and the kcat/Km (purified protein [1]) was 5.42e+06 ± 970000 M⁻¹ s⁻¹. The Km (purified protein [2]) was 14.41 ± 1.82 µM, the kcat (purified protein [2]) was 29.3 ± 10.9 s⁻¹ and the kcat/Km (purified protein [2]) was 2.1e+06 ± 930000 M⁻¹ s⁻¹.

B2: PaIDH2 (Pseudomonas aeruginosa PAO1) (protein)
chain: MSIRSKITYTFTDEAPALATYSLLPIVKAFAASAGIDVETSDISLAGRILANFADRLEADQRIEDDLARLAVLATSPDANIIKLPNISASVPQLKGAIAELQGLGYKVPDFPEDPQTDEEKEVRARYAKILGSAVNPVLREGNSDRRAPAAVKAYARKHPHSMGKWSMASRSHADYMRGGDFFSSEQSITMAKAGDVRIEFVGKDGKVEVKKQLSLQEGEVLDSMFMSCGKLRDFFEKTLQDCKETGVMWSLHVKATMMKISHPIVFGHAVSVYYKDVFDKWGQLFEELGVNPNNGISSVYDKIKSLPASQQEEILHDIHEVYSHRPEMAMVDSVKGITNLHIPSDVIVDASMPAMIRNSGQMWGKDGKQKDTKAVMPESTYARIYQEMINFCKTNGAFDPTTMGSVPNVGLMAQKAEEYGSHDKTFEMTADGTMRVVLADGSVLMQHKVETGDIWRACQTKDAPIRDWVKLAVTRARQSDTPAIFWLDPERAHDRELRKKVELYLKDHDLTGLDISIMGYNEAIRVSMERLIRGKDTISVTGNVLRDYLTDLFPIMELGTSAKMLSIVPLMAGGGMYETGAGGSAPKHVQQLVEENYLRWDSLGEFLALAVSLEETGIKTGNAKAKLLGKALDEATGKLLDNNKSPSRKVGDIDNRGSHFYLAMYWAQALAAQNEDAELKAHFAPLAKALTEQEATIVAELNAVQGKPAEIGGYYRSNPELTSKVMRPSATFNAAIDSLA
notes: full length, 741 aa, 6xHis-tag, pET-28b(+) NdeI/XhoI, E. coli Rosetta (DE3), 81 kDa subunit, oligomer depends on salt (176-320 kDa)
B2 was tested, and the Km (purified protein [1]) was 30.68 ± 2.73 µM, the kcat (purified protein [1]) was 134 ± 17 s⁻¹ and the kcat/Km (purified protein [1]) was 4.42e+06 ± 1.13e+06 M⁻¹ s⁻¹. The Km (purified protein [2]) was 23.61 ± 1.21 µM, the kcat (purified protein [2]) was 171 ± 6.77 s⁻¹ and the kcat/Km (purified protein [2]) was 7.26e+06 ± 130000 M⁻¹ s⁻¹.
